Substitutions are numbered along the chain they refer to.

The results in this text go back to US20230279153A1 (Regeneron, published 2023).

Test [1] has as its target T1, mouse CD20 (mouse, UniProt P19437 1-291).
T1 construct: whole, on cells; also called mCD20; murine CD20
T1 sequence (looked up): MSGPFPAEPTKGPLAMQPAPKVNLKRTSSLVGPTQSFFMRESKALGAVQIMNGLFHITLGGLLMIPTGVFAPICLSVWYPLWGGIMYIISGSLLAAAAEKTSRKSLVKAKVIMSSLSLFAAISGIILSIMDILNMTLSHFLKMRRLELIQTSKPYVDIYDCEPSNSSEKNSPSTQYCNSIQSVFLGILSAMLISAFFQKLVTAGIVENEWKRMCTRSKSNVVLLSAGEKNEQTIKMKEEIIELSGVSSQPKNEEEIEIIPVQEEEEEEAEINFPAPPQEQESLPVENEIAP
Nature of the test: flow cytometry on MC38/mCD20 cells. On the procedure: (§1) Cells (HEK 293, MC38 over-expressing mCD20 or Jurkat over-expressing mPD1) were resuspended in FACS wash (PBS with 1% FBS) at 1×10⁶ cells/mL. The staining was performed in 1×10⁵ cells per well. The antibodies were diluted with a ratio of 1:5 from a starting concentration of 1.3×10⁻⁰⁷ M. The diluted antibodies were then added into the wells containing cells. Cells were stained for 30 min at 2-8° C. and washed twice with FACS wash buffer. APC-conjugated goat anti-human IgG (Jackson Immuno Research, 109-607-003, 1:400) was added to stain the cells for 30 min at 2-8° C. Following washing, cells were fixed in 2% paraformaldehyde for 30 min at 2-8° C. After two washes, stained cells were analyzed using BD LSRFortessa™ FACS instrument. The results were analyzed by FlowJo. FSC/SSC gates were used to select mononuclear cells.
(In general: A flow cytometer gives signals particle by particle.)

In test [2] the target is T2, mouse PD1 (mouse, UniProt Q02242 25-288).
T2 sequence (looked up): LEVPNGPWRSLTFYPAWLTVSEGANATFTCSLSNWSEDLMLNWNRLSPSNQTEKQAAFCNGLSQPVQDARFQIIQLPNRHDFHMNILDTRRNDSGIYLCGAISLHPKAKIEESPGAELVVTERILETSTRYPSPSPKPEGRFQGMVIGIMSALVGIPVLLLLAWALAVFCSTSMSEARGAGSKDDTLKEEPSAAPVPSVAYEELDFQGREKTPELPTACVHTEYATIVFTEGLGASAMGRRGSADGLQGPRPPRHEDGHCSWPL
Nature of the test: cell-based or functional assay.

Test [3] addresses T2, mouse PD1. As to the kind of experiment: flow cytometry on Jurkat/mPD1 cells. On the procedure: as §1
Test [4] concerns the target T1, mouse CD20. As to the kind of experiment: flow cytometry on HEK293/mCD20 cells. The protocol: as §1

On to “Single arm mPDL1 WT-Fc (from UniProt Q9EP73 19-239) (Fc fusion)”, for which the Max MFI with mouse CD20 [1] was determined as 94.9 MFI.
The molecule REGN1932 (hIgG1 control) (antibody) had a Max % inhibition, luciferase bioassay, 2.5 nM CD3 bsAb in the test with mouse PD1 [2] of 3%. Also, the Max MFI came to 140 MFI with mouse CD20 [1], 90.4 MFI with mouse PD1 [3] and 14.3 MFI with mouse CD20 [4].

B1: 1B12IgG1EN (antibody)
heavy 1: QVQLQQPGAELVRPGTSVKLSCKASGYTFTSYWMHWIKQRPGQGLEWIGVIDPSDNYTKYNQKFKGKATLTVDTSSSTAYMQLSSLTSEDSAVYFCAREGYYGSSPWFAYWGQGTLVTVSSASTKGPSVFPLAPSSKSTSGGTAALGCLVKDYFPEPVTVSWNSGALTSGVHTFPAVLQSSGLYSLSSVVTVPSSSLGTQTYICNVNHKPSNTKVDKKVEPKSCDKTHTCPPCPAPEAEGAPSVFLFPPKPKDTLMISRTPEVTCVVVDVSHEDPEVKFNWYVDGVEVHNAKTKPREEQYNSTYRVVSVLTVLHQDWLNGKEYKCKVSNKALPSSIEKTISKAKGQPREPQVYTLPPCRDELTKNQVSLWCLVKGFYPSDIAVEWESNGQPENNYKTTPPVLDSDGSFFLYSKLTVDKSRWQQGNVFSCSVMHEALHNHYTQKSLSLSPGK
heavy 2: B1 heavy 1 with Y353C, C358S, W370S, L372A, Y411V, H439R, Y440F
light: QIVMSQSPAILSASPGEKVTMTCRARSSVSYIHWYQQKPGSSPKPWIYATSNLASGVPGRFSGSGSGTSYSLTITRVEAEDAATYYCQQWSSKPPTFGGGTKLEIKRTVAAPSVFIFPPSDEQLKSGTASVVCLLNNFYPREAKVQWKVDNALQSGNSQESVTEQDSKDSTYSLSSTLTLSKADYEKHKVYACEVTHQGLSSPVTKSFNRGEC
notes: Control, bivalent anti-mCD20 IgG with knob and hole-star heavy chains; also called 1B12lgG1EN
On to B1, for which, in the test with mouse PD1 [2], the “Max % inhibition, luciferase bioassay, 1nM CD3 bsAb” value came to 19% and the “Max % inhibition, luciferase bioassay, 2.5 nM CD3 bsAb” value was found to be 0%. Moreover, in the test with mouse CD20 [1], the EC50 (in general, the concentration that produces a half-maximal response) stood at 1.71 nM and the “Max MFI” value stood at 42000 MFI. For the same molecule, in the test with mouse PD1 [3], the “Max MFI” value came to 118 MFI and the binding result is given as “no binding (tested: starting concentration of 1.3×10^-07 M)”. Besides, in the test with mouse CD20 [4], a half-maximal effect (EC50) was put at 13.5 nM and the “Max MFI” value is 28200 MFI.

B2: 18B12-scFvFc (scFv, V domains shown)
VH: QVQLQQPGAELVRPGTSVKLSCKASGYTFTSYWMHWIKQRPGQGLEWIGVIDPSDNYTKYNQKFKGKATLTVDTSSSTAYMQLSSLTSEDSAVYFCAREGYYGSSPWFAYWGQGTLVTVSS
VL: QIVMSQSPAILSASPGEKVTMTCRARSSVSYIHWYQQKPGSSPKPWIYATSNLASGVPGRFSGSGSGTSYSLTITRVEAEDAATYYCQQWSSKPPTFGGGTKLEIK
As to B2, in the test with mouse CD20 [1], the EC50 turned out to be 18 nM and the “Max MFI” value stood at 48300 MFI. In addition, in the test with mouse PD1 [3], the “Max MFI” value is 198 MFI and the binding result is listed as “no binding (tested: starting concentration of 1.3×10^-07 M)”.
